Data on five molecules can be found in US7067274B2, “Compositions and methods for the screening pro-apoptotic compounds” (Genentech, Inc., priority 2003, dated 2006).

Entries after “also recorded” stand apart in the source; their conditions may differ. Read-outs that look alike come from different tables or passages of the source.

The target of one test is T1, ΔCARD human caspase 9 (Homo sapiens, UniProt P55211, D305A/E304A/E306A).
T1 construct: made in house
T1 sequence (P55211 139-315 E304A/D305A/E306A limits assumed): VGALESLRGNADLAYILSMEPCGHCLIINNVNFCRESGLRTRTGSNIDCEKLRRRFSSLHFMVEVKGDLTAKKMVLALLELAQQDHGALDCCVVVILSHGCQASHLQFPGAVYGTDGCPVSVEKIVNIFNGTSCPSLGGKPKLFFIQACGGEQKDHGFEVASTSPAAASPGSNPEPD
T1 sequence (P55211 316-416 limits assumed): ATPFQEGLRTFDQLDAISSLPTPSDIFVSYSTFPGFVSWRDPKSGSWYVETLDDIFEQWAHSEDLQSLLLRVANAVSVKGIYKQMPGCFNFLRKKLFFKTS
The test can be described thus: Determination of caspase-9 inhibitory constants (Ac-LEHD-AFC hydrolysis). The following applies: for Ki: read-out: Caspase-9 inhibition Ki(app). It counts as biochemical. The protocol: ΔCARD (caspase recruitment domain) human caspase 9 (lacking the first 138 residues) with Ala substitutions at residues 304 to 306 was produced as described previously (Boatright et al., (2003) Mol Cell 11: 529–541). The third BIR of […] (residues 252–348) was also prepared as described previously (Sun et al., (2000) J Biol Chem 275(43): 33777–81).
Determination of Caspase-9 Inhibitory Constants: Recombinant ΔCARD caspase 9 (300 nM final concentration in the assay) was preactivated in salt-free caspase buffer (20 mM PIPES, 10 mM EDTA, 0.1% CHAPS and 10% (w/v) sucrose, pH 7.2) for 15 min at 37° C. Following this, a range of inhibitor concentrations were preincubated with the enzyme for 20 min at 37° C. The assay was started by the addition of Ac-LEHD-AFC (100 μM final concentration) and measured kinetically for 30 min using an fmax Fluorescence Plate Reader (Molecular Devices) at an excitation wavelength of 405 nm and an emission wavelength of 510 nm. Reaction mixtures were thermostatically controlled at 37° C. The individual Ki values for the inhibitors [I] were determined from the uninhibited substrate hydrolysis rate (vo) and the inhibited rates (vi), so that a plot of (vo/vi)−1 against [I] gives Ki(app), the equilibrium inhibition constant in the presence of substrate (Salvesen and Nagase, (1989) Proteolytic enzymes: A practical approach. R. J. Beynon and J. S. Bond. Oxford, IRL Press: 83–104).

Test [1] concerns the target Hid-FAM (5-carboxyflourescein-conjugated AVPFAK(5-FAM)K). As to the kind of experiment: Fluorescence polarization affinity measurement with Hid-FAM probe. It counts as binding. As to conditions: 5 nM Hid-FAM, apparent Kd from EC50. On the procedure: Polarization experiments were performed on an Analyst™ HT 96-384 (Molecular Devices Corp.). […] The reactions were read after an incubation time of 10 minutes at room temperature with standard cut-off filters for the fluorescein fluorophore (λex=485 nm; λem=530 nm) in 96-well black HE96 plates (Molecular Devices Corp.). Fluorescence polarization values were plotted as a function of the protein concentration, and the EC50 values were obtained by fitting the data to a 4-parameter equation using Kaleidagraph™ software (Synergy software, Reading, Pa.). The apparent Kd values were determined from the EC50 values.
(§1) The binding affinity of the Hid-FAM probe for each of the BIR domains was determined directly using a fluorescence polarization-based assay and the result is shown graphically in FIG. 8.

The target in test [2] is wild-type mature Smac protein. As to the kind of experiment: Fluorescence polarization competition assay, mature Smac protein. As to conditions: competition with 5 nM Hid-FAM probe, Ki from IC50. It counts as binding, human. On the procedure:
A PCR product containing amino acids 56–239 of Smac/DIABLO (accession number SMAC_HUMAN) was cloned into the XbaI/XhoI sites of a pet21b+ (Novagen) generating a C-terminal His6 fusion. Pet21bSmac was transformed into Escherichia coli strain BL21(DE3) competent cells (Stratagene). Overnight cultures were diluted 1:100 and grown at 37° C. in LB media with 50 μg/ml carbenicillin to an A600 of 0.8 with vigorous shaking. Isopropyl-β-D-1-thiogalactopyranoside (IPTG) was added to a final concentration of 1 mM and cultures were grown overnight at 16° C. Cell pellets were resuspended in Buffer A (50 mM Tris (pH 8.0), 300 mM NaCl, 0.5 mM PMSF, 2 mM benzamidine, 5 mM β-mercaptoethanol) with 5 mM imidazole and placed on ice for 30 minutes. Cells were homogenized, microfluidized, and centrifuged at 15,000 rpm for 45 minutes. Supernatant was loaded onto a Ni-NTA agarose column (Qiagen™), washed with 10 column volumes Buffer A with 10 mM imidazole, and eluted with 10 column volumes Buffer A with 300 mM imidazole. Fractions containing Smac protein were pooled, concentrated and loaded on a Superdex™ 200 sizing column. Protein eluted over one column volume into 50 mM Tris (pH 7.6), 300 mM NaCl, 0.5 mM PMSF, 2 mM benzamidine and 5 mM DTT. Fractions containing Smac protein were pooled and dialyzed against 3 changes of buffer containing 50 mM Tris (pH 7.6), 0.5 mM PMSF, 2 mM benzamidine and 5 mM DTT. The dialyzed sample was loaded onto a Q-Sepharose™ FF column (Pharmacia) and eluted over a 10 column volume gradient from zero to 1 M NaCl in buffer 50 mM Tris (pH 7.6), 0.5 mM PMSF, 2 mM benzamidine and 5 mM DTT. The cDNA encoding full-length ML-IAP plus a N-terminal His6-tag was cloned into the pET15b(+) expression vector (Novagen). ML-IAP was expressed in E. coli strain BL21(DE3)pLysS. […] The protein concentration of purified proteins was determined from the absorbance at 280 nm based on the molar absorption coefficients calculated from the Edelhoch relationship (Edelhoch, (1967) Biochemistry 6: 1948–1954).
Samples were read after a 10-minute incubation. Fluorescence polarization values were plotted as a function of the antagonist concentration, and the IC50 values were obtained by fitting the data to a 4-parameter equation using Kaleidagraph™ software (Synergy software; Reading, Pa.). Inhibition constants (Ki) for the antagonists were determined from the IC50 values (Keating et al., (2000) Putting the pieces together: contribution of fluorescence polarization assays to small-molecule lead optimization. Proceedings of SPIE: In-Vitro Diagnostic Instrumentation.).
as §1

Another test has as its system MCF7 cells. The test can be described thus: Inhibition of doxorubicin-induced apoptosis in transfected MCF7 cells. It counts as cell-based. As to conditions: MCF7 cells transiently transfected, doxorubicin 0.5 μg/ml. The protocol:
MCF7 cells were transiently transfected with the reporter plasmid pCMV-βgal and either vector control alone or BIR domain constructs. Following transfection, cells were exposed to doxorubicin (adriamycin; 0.5 μg/ml), stained with X-gal and apoptosis assessed by counting live and dead transfected cells. Percentage apoptosis represents the mean value of at least four sample points and is representative of three independent experiments.

In another test the target is T2, caspase-9 (Homo sapiens, UniProt P55211).
T2 sequence (P55211 1-416): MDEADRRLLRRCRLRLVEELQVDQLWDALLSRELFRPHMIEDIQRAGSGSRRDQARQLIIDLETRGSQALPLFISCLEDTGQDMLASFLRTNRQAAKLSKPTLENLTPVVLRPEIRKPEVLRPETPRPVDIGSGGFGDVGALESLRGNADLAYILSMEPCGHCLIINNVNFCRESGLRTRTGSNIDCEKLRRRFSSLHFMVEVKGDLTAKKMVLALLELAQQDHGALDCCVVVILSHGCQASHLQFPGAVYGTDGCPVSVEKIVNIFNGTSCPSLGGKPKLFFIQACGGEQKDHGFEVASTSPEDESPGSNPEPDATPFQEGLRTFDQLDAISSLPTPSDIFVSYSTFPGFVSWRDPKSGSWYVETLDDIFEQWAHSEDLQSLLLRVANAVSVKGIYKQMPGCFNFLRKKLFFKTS
As to conditions: literature; read-out: inhibition constant, caspase-9; cited from earlier work.

Where [3] appears, read: 300 nM ΔCARD caspase 9, 100 μM Ac-LEHD-AFC, 37° C.

B1: ML-IAP: full-length melanoma inhibitor of apoptosis protein with N-terminal His6-tag (protein)
chain: MGPKDSAKCLHRGPQPSHWAAGDGPTQERCGPRSLGSPVLGLDTCRAWDHVDGQILGQLRPLTEEEEEEGAGATLSRGPAFPGMGSEELRLASFYDWPLTAEVPPELLAAAGFFHTGHQDKVRCFFCYGGLQSWKRGDDPWTEHAKWFPSCQFLLRSKGRDFVHSVQETHSQLLGSWDPWEEPEDAAPVAPSVPASGYPELPTPRREVQSESAQEPGGVSPAEAQRAWWVLEPPGARDVEAQLRRLQEERTCKVCLDRAVSIVFVPCGHLVCAECAPGLQLCPICRAPVRSRVRTFLS
modifications: left off: small tags and cut ends
As to B1, the Ki with ΔCARD human caspase 9 was 3000 to 5000 nM. Also, in the test with ΔCARD human caspase 9 (relative to XIAP), the “fold lower potency for inhibition of caspase-9 activity relative to XIAP” value is listed as about 300 fold.

B2: XIAP-BIR3: third BIR domain of XIAP (residues 252–348) (protein)
chain: NSTNLPRNPSMADYEARIFTFGTWIYSVNKEQLARAGFYALGEGDKVKCFHCGGGLTDWKPSEDPWEQHAKWYPGCKYLLEQKGQEYINNIHLTHSL
modifications: left off: small tags and cut ends
With B2, the Kd in test [1] was determined as 105 nM. Moreover, the Ki in test [2] was 320 nM; with caspase-9, 10 to 20 nM; with ΔCARD human caspase 9 (setting [3]) it was 13 nM. Further, in the test with MCF7 cells, the “inhibition of doxorubicin-induced apoptosis” value was “confers resistance”.

B3: MLXBIR3SG: MLXBIR3 chimera with Ser 150 of ML-IAP-BIR mutated to Gly (SEQ ID NO:2) (protein)
chain: MGSSHHHHHHSSGLVPRGSHMLETEEEEEEGAGATLSRGPAFPGMGSEELRLASFYDWPLTAEVPPELLAAAGFFHTGHQDKVRCFFCYGGLQSWKRGDDPWTEHAKWFPGCQFLLRSKGQEYINNIHLTHSL
modifications: Homo sapien
In the case of B3, the Ki in test [2] was 59 nM; with ΔCARD human caspase 9 (setting [3]), under 1 nM. In addition, the “inhibition of doxorubicin-induced apoptosis” value in the test with MCF7 cells is reported as “significantly more efficient; also recorded: confers resistance”.

B4: MLXBIR3: ML-IAP-BIR in which amino acids 160–179 were replaced with amino acids 336–348 of XIAP-BIR3 (protein)
chain: TEEEEEEGAGATLSRGPAFPGMGSEELRLASFYDWPLTAEVPPELLAAAGFFHTGHQDKVRCFFCYGGLQSWKRGDDPWTEHAKWFPSCQFLLRSKGQEYINNIHLTHSL
modifications: left off: small tags and cut ends
B4: the Kd in test [1] was 21 nM. In the test on MCF7 cells, the “inhibition of doxorubicin-induced apoptosis” value is “confers resistance”. The Ki in the test with ΔCARD human caspase 9 (setting [3]) is 962 nM. Besides, the “fold less potent at inhibiting caspase-9 than XIAP-BIR3” value with ΔCARD human caspase 9 (relative to XIAP-BIR3) is about 70 fold. Besides, the “fold better at inhibiting caspase-9 than MLBIR-Q” value in the test with ΔCARD human caspase 9 (relative to wild-type ML-IAP-BIR construct of the same length) was about 5 fold.

B5: MLBIR-Q: C-terminally truncated version of ML-IAP-BIR with the same number of amino acids as MLXBIR3 and MLXBIR3SG (protein)
chain: TEEEEEEGAGATLSRGPAFPGMGSEELRLASFYDWPLTAEVPPELLAAAGFFHTGHQDKVRCFFCYGGLQSWKRGDDPWTEHAKWFPSCQFLLRSKGRDFVHSVQETHSQ
modifications: left off: small tags and cut ends
For B5, the Kd in test [1] is 20 nM. The values for the Ki (in test [2]; with ΔCARD human caspase 9 (setting [3])) were 54 nM and 4600 nM, respectively.
